In paper PMC8216847:

Target: SARS-CoV-1 S-2P (SARS-CoV-1)

CV3-25 (antibody)
IC50 of neutralisation of SARS-CoV-1 pseudovirus: 2.1 µg/mL
